Source: patent US20140148355A1, “COMPOSITIONS AND METHODS FOR ANALYSIS OF H3K4 METHYLATED CHROMATIN” (UNIVERSITY OF OSLO, priority 2011, published 2014)

Tests used:
[1] = molecular target: T1, methylated H3K4 peptides (panel of biotinylated histone tail peptides) (Homo sapiens, UniProt P68431); assay: Histone peptide binding (pull-down) assay with biotinylated histone peptides; settings: for preference for methylation state of H3K4 peptides: pull-down with biotinylated histone peptides, anti-GST immunoblot
T1 construct: purchased Upstate Biotechnology
Protocol: (§1) FIG. 3 The ASHH2 CW domain binds histone H3 tails methylation on lysine 4. (A) Cartoon of the ASHH2 protein with CW, AWS and KMT (SET domain) indicated. The two recombinant proteins used in this study are also illustrated. (B) SDS-PAGE of purified GST and GST-ASHH2-CW. (C) Pull-down assay using biotinylated histone peptides and recombinant GST, GST-ASHH2-CW and GST-ING2-PHD as indicated. The ratio of proteins and peptides were 0.5 μg:0.5 μg. (D) Pull-down assay using biotinylated histone peptides and recombinant GST and GST-ASHH2-CW as indicated. The ratio of proteins and peptides were 1.0 μg:0.5 μg. (E) Surface plasmon resonance traces from an experiment with immobilised, biotinylated H3K4me1 peptide and GST-ASHH2-CW. (F) Dissociation constants for GST-ASHH2-CW and the three H3K4me peptides indicated calculated from surface plasmon resonance data. The number of replicates are indicated.
(§2) FIG. 4 CW domains from four different proteins bind methylated H3K4 peptides. (A) Cartoons of the proteins studied: human MORC4, Arabidopsis VAL1, and human ZCWPW1. (B, C) Pull-down assay using biotinylated histone peptides and (B) recombinant GST, GST-Val1-CW and GST-MORC4-CW or (C) GST, GST-ASHH2-CW, and GST-ZCWPW1-CW, as indicated. The ratio of proteins and peptides were equimolar.
(§3) FIG. 7 Probing the predicted histone tail binding site with mutant CW domains. […] The predicted binding site for the histone tail is indicated as in FIG. 6D. (B and C) Pull-down assays using biotinylated histone peptides and recombinant GST and GST-ASHH2-CW mutant proteins as indicated. The ratio of proteins and peptides were 1.0 μg:0.5 μg.
(§4) Histone peptide binding assays were performed as described by Shi et al (2006) with biotinylated histone peptides from Upstate Biotechnology. The protein-peptide ratio used is indicated in the legends to the figures. Bound proteins were visualized by immunoblotting using rabbit anti-GST antibodies Z-5 (SC-456) from Santa Cruz at a 1:20,000 dilution, and a donkey anti-rabbit HRP conjugate (Amersham NA934) at a 1:10,000 dilution.

[2] = tested on: H3K4 methylated chromatin; assay: Chromatin pulldown (ChPD) with western blot detection; assay type: binding; settings: antibodies against each of the three H3K4 methylation states; Arabidopsis seedling chromatin
Text: (§5) FIG. 8 Chromatin pulldown (ChPD) using the ASHH2 CW. […] Modified histones were visualised by western blot using antibodies as indicated. Molecular size markers are shown to the right. (B) qPCR with primers for assumed ASHH2 target genes on DNA isolated from seedling chromatin pulled down with GST-CWASHH2. ChPD with GST alone was used as a negative control. Data are shown as percent of input. The Ta3 retrotransposon was used as reference. Standard deviations are shown. (C) ChIP using antibodies against H3K4me1, H3K4me3 and H3K36me3 and primers for the same genes as in (B). Data are shown relative to Ta3. (D) ChPD from wt and ashh2 mutant seedlings as in (A) using antibodies as indicated. ChPD with GST alone was used as a negative control and histone H3 as reference.
(§6) Chromatin pull-down (ChPD) was performed using crude chromatin in ChIP dilution buffer (1.1% Triton X-100, 1.2 mM EDTA, 16.7 mM Tris-HCL pH 8, 167 mM NaCl) prepared as for ChIP (Gendrel et al., 2005) incubated with 8 μg GST-CW fusion protein and control proteins (only GST alone, or together with GST-CW-W874A and GST-WIYLD) over night. For western blotting, the pulled down chromatin was washed three times in ChIP dilution buffer, run on a 15% SDS-PAGE and blotted onto a PVDF membrane. […]

[3] = tested on: H3K4me2 in Arabidopsis chromatin; assay: Chromatin pulldown (ChPD), western blot quantification, H3K4me2; assay type: binding; settings: chromatin from Arabidopsis seedlings, anti-H3K4me2 western blot
Text: as §5, §6

[4] = tested on: chromatin associated with genes regulated by ASHH2; assay: Chromatin pulldown (ChPD) followed by qPCR on ASHH2 target genes; assay type: binding, Arabidopsis; settings: seedling chromatin; GST alone as negative control
Text: as §5, §6

[5] = tested on: H3K4me1 in Arabidopsis chromatin; assay: Chromatin pulldown (ChPD), western blot quantification, H3K4me1; assay type: binding; settings: chromatin from Arabidopsis seedlings, anti-H3K4me1 western blot
Text: as §5, §6

[6] = molecular target: biotinylated H3 peptide dimethylated on lysine 4 (H3K4me2) (Homo sapiens, UniProt P68431); assay: Surface plasmon resonance (BIAcore T100) binding to immobilised H3K4me2 peptide; settings: GST-tagged protein 0.1 μM to 10 μM, HBS-P buffer
Protocol: (§7) Surface plasmon resonance binding assays were performed on a BIAcore T100 biosensor according to the manufacturers protocols using immobilized, biotinylated H3 peptides monomethylated (0.54 ng), dimethylated (0.24 ng), or trimethylated (0.48 ng) on lysine 4. GST-tagged ASHH2 CW protein in five different concentrations in a range from 0.1 μM to 10 μM was injected for 2 min at a flow rate of 10 μl/min. Each sample injection was followed by injection of HBS-P buffer (10 mM HEPES pH 7; 150 mM NaCl) alone for 5 min at a flow rate of 5 μl/min. Kd values were obtained using the Biacore T100 Evaluation software 2.0.1. Measurements were repeated 2 to 5 times.

[7] = molecular target: T2, three methylated forms of H3K27-peptides (Homo sapiens, UniProt P68431); assay: Histone peptide binding (pull-down) assay, methylated H3K27 peptides; settings: protein:peptide 1.0 μg:0.5 μg
T2 construct: purchased Upstate Biotechnology
Protocol: as §1, §4

[8] = tested on: methylated H3K4 peptides (panel of biotinylated histone tail peptides); assay: Histone peptide binding (pull-down) assay with biotinylated histone peptides; settings: panel incl. trimethylated H3K27 and H3K36 peptides
Protocol: as §1, §2, §3, §4

[9] = molecular target: biotinylated H3 peptide monomethylated on lysine 4 (H3K4me1) (Homo sapiens, UniProt P68431); assay: Surface plasmon resonance (BIAcore T100) binding to immobilised H3K4me1 peptide; settings: GST-tagged protein 0.1 μM to 10 μM, HBS-P buffer
Protocol: as §7

[10] = molecular target: T3, H3K4me3 peptide (Homo sapiens, UniProt P68431); assay: Histone peptide binding (pull-down) assay, H3K4me3 peptide; settings: protein:peptide 0.5 μg:0.5 μg
T3 construct: purchased Upstate Biotechnology
Protocol: as §1, §4

[11] = molecular target: biotinylated H3 peptide trimethylated on lysine 4 (H3K4me3) (Homo sapiens, UniProt P68431); assay: Surface plasmon resonance (BIAcore T100) binding to immobilised H3K4me3 peptide; settings: GST-tagged protein 0.1 μM to 10 μM, HBS-P buffer
Protocol: as §7

B1: W865A: GST-ASHH2-CW mutant, tryptophan 865 to alanine (protein)
chain: MVVDVTIEDSYSTESAAVRCDDCFKWRRIPASVVGSIDESSRWICMNNSDKRFADCSKSQEMSNEEINEELGIGQDEADAYDCDAAKRG
modifications: left off: a dimerising Fc or GST; large carriers; small tags and cut ends
notes: GST-ASHH2-CW mutant, tryptophan 865 to alanine
Q: With B1 as the molecule, how does the “histone tail binding of mutant ASHH2 CW domains” value ([1]; pull-down, protein:peptide 1.0 μg:0.5 μg) read?
A: abolished histone tail binding

B2: GST-Val1-CW: Arabidopsis VAL1 CW domain (nt 1575-1797) as GST fusion protein (protein)
chain: VFGKRTIVTTKPSGEQERWATCDDCSKWRRLPVDALLSFKWTCIDNVWDVSRCSCSAPEESLKELENVLKVGRE
modifications: left off: a dimerising Fc or GST
notes: Arabidopsis VAL1 CW domain (nt 1575-1797) as GST fusion protein
Q: What does the source list for B2?
A: preference for methylation state of H3K4 peptides ([1]; listed as VAL1): strongest preference for K4me3; preference for methylation state of H3K4 peptides ([1]; listed as VAL1 CW): clear preference for H3 Kme2 and me3 peptides

B3: GST-ASHH2-CW: Arabidopsis ASHH2 CW domain (nt 2547-2811) expressed and purified as a GST-fusion protein from bacteria (protein)
chain: VVDVTIEDSYSTESAWVRCDDCFKWRRIPASVVGSIDESSRWICMNNSDKRFADCSKSQEMSNEEINEELGIGQDEADAYDCDAAKRG
modifications: left off: a dimerising Fc or GST
notes: Arabidopsis ASHH2 CW domain (nt 2547-2811) expressed and purified as a GST-fusion protein from bacteria
Q: Which results are given for B3?
A: pull down of H3K4 methylated chromatin (western blot signal) [2]: Strong signals; bound H3K4me2 chromatin relative to input chromatin [3]: 3.3 times of input material (2.5%); binding of chromatin associated with ASHH2-regulated genes (real-time PCR) [4]: significantly above background levels; bound H3K4me1 chromatin relative to input chromatin [5]: 4.4 times of input material (2.5%); Kd [6]: 2100 nM; binding to methylated H3K27-peptides [7]: no binding was observed; sequence selectivity on histone peptide panel [8]: only binds the methylated H3K4 peptides; preference for methylation state of H3K4 peptides [1]: preference for mono- and dimethylated H3K4 peptides; Kd [9]: 1150 nM; binding to the H3K4me3 peptide [10]: close to background levels; Kd [11]: 4000 nM

B4: GST-ZCWPW1-CW: human ZCWPW1 CW domain (nt 714-942, from HEK293 cDNA) as GST fusion protein (protein)
chain: IRDQQKGEISGFGQCLVWVQCSFPNCGKWRRLCGNIDPSVLPDNWSCDQNTDVQYNRCDIPEETWTGLESDVAYAS
modifications: left off: a dimerising Fc or GST
notes: human ZCWPW1 CW domain (nt 714-942, from HEK293 cDNA) as GST fusion protein
Q: B4 was tested. Which “preference for methylation state of H3K4 peptides” value [1] did it give?
A: clear preference for H3 Kme2 and me3 peptides

B5: GST-MORC4-CW: human MORC4 CW domain (nt 1236-1422, from HEK293 cDNA) as GST fusion protein (protein)
chain: TVARPIPKVPDQTWVQCDECLKWRKLPGKIDPSMLPARWFCYYNSHPKYRRCSVPEEQELTD
modifications: also: GST fusion partner not part of the given chain
notes: human MORC4 CW domain (nt 1236-1422, from HEK293 cDNA) as GST fusion protein
Q: How did the “preference for methylation state of H3K4 peptides” value [1] turn out when B5 was run?
A: preference for H3K4me2
